Consider one molecule from patent US20100331255A1 (WAKE FOREST UNIVERSITY HEALTH SCIENCES, published 2010).

In the experiment the target is T1, Rat PDI (protein disulfide isomerase) in extracted rat liver microsomal membranes (rat, UniProt P04785 20-509).
T1 construct: Endogenous protein solubilised from extracted rat liver microsomal membranes; also called 55 kDa PDI protein
T1 sequence (looked up): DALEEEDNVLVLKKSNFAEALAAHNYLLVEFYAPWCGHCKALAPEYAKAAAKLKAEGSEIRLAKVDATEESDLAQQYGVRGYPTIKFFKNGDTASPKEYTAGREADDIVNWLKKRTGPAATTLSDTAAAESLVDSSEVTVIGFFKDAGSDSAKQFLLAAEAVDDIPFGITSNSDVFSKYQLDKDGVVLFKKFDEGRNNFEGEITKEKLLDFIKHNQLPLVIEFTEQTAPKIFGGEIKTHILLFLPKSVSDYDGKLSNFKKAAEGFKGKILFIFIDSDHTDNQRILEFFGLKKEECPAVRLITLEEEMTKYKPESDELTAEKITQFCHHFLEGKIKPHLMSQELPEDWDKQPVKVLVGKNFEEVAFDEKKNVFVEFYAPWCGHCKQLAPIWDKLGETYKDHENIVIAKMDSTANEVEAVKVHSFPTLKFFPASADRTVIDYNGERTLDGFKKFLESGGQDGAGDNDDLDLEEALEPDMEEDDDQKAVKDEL
The experiment can be described thus: immunoprecipitation with rat VKORC1 antibodies from solubilised rat liver microsomal membranes, Western blot with PDI monoclonal antibody. From the text:
Lane St. has standard proteins. […] Lanes D and E show Western blots of extracted human and rat liver microsomes respectively with peptide antibodies raised against an epitope on human VKORC1 (see Experimental Procedures). […] The sequence of precipitating and first antibody is shown. Rat PDI and the heavy (HIgG) and light (LIgG) chains of mouse IgG are visible. Panel II, lanes G.Ox. and G.Red show immunoprecipitates obtained with rat VKORC1 antibodies and their Western blots developed with the mouse PDI monoclonal antibody as the first antibody and horse radish conjugated goat anti-mouse IgG as the second antibody. The sequence of precipitating and first antibody is shown. Preparation of the samples before SDS-PAGE in 8-12% CRITERION gels is described in detail in Experimental Procedures. The samples in G.Ox and G.Red were not reduced and reduced with ME respectively prior to electrophoresis.
Extracted microsomal membranes were resuspended in buffer D (250 mM sodium phosphate, 0.5 M KCl, 20% glycerol, 0.75% CHAPS, pH 7.85 containing 10 μg/ml of the Sigma Protease Inhibitor Cocktail for use with mammalian cell and tissue extracts) using a Dounce homogenizer. For blocking of free thiol groups, 20 mg NEM was added per ml of buffer D before homogenizing. The protein concentration was 6.8 mg/ml. […]
Background: Liver microsomes are a subcellular fraction often used to study metabolism.

B1: Rat VKORC1 in extracted rat liver microsomal membranes (enzyme, UniProt Q6TEK4 1-161, looked up)
chain: MGTTWRSPGRLRLALCLAGLALSLYALHVKAARARNEDYRALCDVGTAISCSRVFSSRWGRGFGLVEHVLGADSILNQSNSIFGCMFYTIQLLLGCLRGRWASILLILSSLVSVAGSLYLAWILFFVLYDFCIVCITTYAINAGLMLLSFQKVPEHKVKKP
notes: Endogenous protein
Regarding B1, the binding result is recorded as “binds”.
